{"source": "patent US20260139007A1", "about": "“EPHA4 ANTAGONISTS AND USES THEREOF” (SANFORD BURNHAM PREBYS MEDICAL DISCOVERY INSTITUTE, priority 2023, published 2026)", "key": {"[1]": {"target": "EphA4 Fc (human EphA4 Fc, #CJ75, Novoprotein, or mouse EphA4 Fc, #641-A4, R&D Systems/BioTechne) (human or mouse) (UniProt P54764)", "sequence (P54764 20-547)": "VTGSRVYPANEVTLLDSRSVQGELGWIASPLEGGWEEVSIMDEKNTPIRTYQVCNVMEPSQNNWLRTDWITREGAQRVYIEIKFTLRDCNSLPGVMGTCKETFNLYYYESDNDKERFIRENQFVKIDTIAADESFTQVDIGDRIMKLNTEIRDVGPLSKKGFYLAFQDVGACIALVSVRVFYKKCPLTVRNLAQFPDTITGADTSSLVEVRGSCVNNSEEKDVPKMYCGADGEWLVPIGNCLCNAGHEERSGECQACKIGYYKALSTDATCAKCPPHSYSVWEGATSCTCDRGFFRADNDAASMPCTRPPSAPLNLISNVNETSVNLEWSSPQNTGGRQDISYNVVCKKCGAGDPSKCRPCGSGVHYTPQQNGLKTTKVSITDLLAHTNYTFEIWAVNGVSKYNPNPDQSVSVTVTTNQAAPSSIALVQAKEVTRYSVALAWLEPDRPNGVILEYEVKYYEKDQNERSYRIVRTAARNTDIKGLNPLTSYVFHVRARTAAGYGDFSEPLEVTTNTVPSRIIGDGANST", "assay": "competition ELISA, inhibition of ephrin-A5 AP binding to immobilized EphA4 Fc"}, "[2]": {"target": "EphA4 Fc (human EphA4 Fc, #CJ75, Novoprotein, or mouse EphA4 Fc, #641-A4, R&D Systems/BioTechne) (human or mouse) (UniProt P54764)", "assay": "competition ELISA, inhibition of ephrin-A5 AP binding to immobilized EphA4 Fc (Table 2, repeats Table 1)"}}}
{"binder": "XPYCVYRXSWSCXXX (β-alanine at 1 and 8; disulfide bond Cys4-Cys12 (Cyc (4,12)); three 6-aminohexanoic acid (Ahx) residues and propargyl-glycine (Pra) after Cys12; 30 kDa methoxy-PEG on Pra through a triazole (click chemistry); free C-terminal acid (-OH))", "note": "[APY-d3-PEG4]", "values": [{"measurement": "IC50", "setting": "[1]", "result": 0.02, "unit": "µM"}, {"measurement": "IC50", "setting": "[2]", "result": 0.02, "unit": "µM"}]}
